In article PMC11257983 (2024):

Columns and labels:
[1] = target: endogenous CNK (anti-CNK blot, no CNK construct transfected); test: anti-V5 immunoprecipitation, immunoblot quantification; conditions: S2 cells; V5-KSR and Myc-MEK co-expressed; anti-CNK blot (band near 180 kDa); parent: 1.00
Flag-CNK^2–549 = Flag-CNK^2–549 (UniProt Q7KNQ9); test: GST pull-down, immunoblot quantification; conditions: S2 cells, Flag-CNK2–549, V5-KSR, Myc-MEK, GST-HYP co-expressed, captured via GST-HYP, parent: 1.00
[2] = target: CNK^CRIC Q84E (Flag-CNK^2–549 assumed); test: GST pull-down, immunoblot quantification; conditions: S2 cells, Flag-CNK2–549, V5-KSR, Myc-MEK, GST-HYP co-expressed, captured via GST-HYP, parent: 1.00
[3] = target: CNK^CRIC N96E (Flag-CNK^2–549 assumed); test: GST pull-down, immunoblot quantification; conditions: S2 cells, Flag-CNK2–549, V5-KSR, Myc-MEK, GST-HYP co-expressed, captured via GST-HYP, parent: 1.00
[4] = target: CNK^SAM Y76R (Flag-CNK^2–549 assumed); test: GST pull-down, immunoblot quantification; conditions: S2 cells, Flag-CNK2–549, V5-KSR, Myc-MEK, GST-HYP co-expressed, captured via GST-HYP, parent: 1.00
[5] = target: CNK^SAM R46F (Flag-CNK^2–549 assumed); test: GST pull-down, immunoblot quantification; conditions: S2 cells, Flag-CNK2–549, V5-KSR, Myc-MEK, GST-HYP co-expressed, captured via GST-HYP, parent: 1.00
V5-KSR R913E, Q24171 = target: T1, V5-KSR R913E, Q24171; test: anti-V5 immunoprecipitation, immunoblot quantification; conditions: chain shown with the change; S2 cells; V5-KSR and Myc-MEK co-expressed; anti-Myc (MEK) blot; parent: 1.00
T1 chain: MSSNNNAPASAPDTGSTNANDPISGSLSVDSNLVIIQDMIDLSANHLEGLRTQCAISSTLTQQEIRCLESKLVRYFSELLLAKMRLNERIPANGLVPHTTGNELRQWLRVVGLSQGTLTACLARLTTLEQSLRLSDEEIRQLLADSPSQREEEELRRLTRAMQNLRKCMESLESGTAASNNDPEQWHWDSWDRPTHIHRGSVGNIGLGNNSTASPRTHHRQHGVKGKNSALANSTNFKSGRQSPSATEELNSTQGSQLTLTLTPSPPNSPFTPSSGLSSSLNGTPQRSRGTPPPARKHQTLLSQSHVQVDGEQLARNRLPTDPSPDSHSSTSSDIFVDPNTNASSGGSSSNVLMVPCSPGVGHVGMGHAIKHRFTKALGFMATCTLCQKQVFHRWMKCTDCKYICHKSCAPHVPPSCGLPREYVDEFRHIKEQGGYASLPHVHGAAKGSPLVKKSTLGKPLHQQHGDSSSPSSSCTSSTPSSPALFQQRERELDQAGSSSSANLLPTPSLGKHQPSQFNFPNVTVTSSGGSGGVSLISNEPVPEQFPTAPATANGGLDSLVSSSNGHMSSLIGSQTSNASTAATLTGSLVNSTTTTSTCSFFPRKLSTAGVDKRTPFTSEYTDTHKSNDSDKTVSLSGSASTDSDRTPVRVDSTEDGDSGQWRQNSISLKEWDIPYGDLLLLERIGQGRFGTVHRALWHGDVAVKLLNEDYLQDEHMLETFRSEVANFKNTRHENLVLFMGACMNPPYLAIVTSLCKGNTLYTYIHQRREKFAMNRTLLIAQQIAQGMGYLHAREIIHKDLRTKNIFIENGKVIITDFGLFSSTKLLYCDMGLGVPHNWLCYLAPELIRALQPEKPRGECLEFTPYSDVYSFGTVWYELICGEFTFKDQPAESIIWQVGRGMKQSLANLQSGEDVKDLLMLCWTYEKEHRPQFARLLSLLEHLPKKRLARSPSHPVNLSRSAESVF

Sequence of Flag-CNK^2–549 (Q7KNQ9 entry or part of it): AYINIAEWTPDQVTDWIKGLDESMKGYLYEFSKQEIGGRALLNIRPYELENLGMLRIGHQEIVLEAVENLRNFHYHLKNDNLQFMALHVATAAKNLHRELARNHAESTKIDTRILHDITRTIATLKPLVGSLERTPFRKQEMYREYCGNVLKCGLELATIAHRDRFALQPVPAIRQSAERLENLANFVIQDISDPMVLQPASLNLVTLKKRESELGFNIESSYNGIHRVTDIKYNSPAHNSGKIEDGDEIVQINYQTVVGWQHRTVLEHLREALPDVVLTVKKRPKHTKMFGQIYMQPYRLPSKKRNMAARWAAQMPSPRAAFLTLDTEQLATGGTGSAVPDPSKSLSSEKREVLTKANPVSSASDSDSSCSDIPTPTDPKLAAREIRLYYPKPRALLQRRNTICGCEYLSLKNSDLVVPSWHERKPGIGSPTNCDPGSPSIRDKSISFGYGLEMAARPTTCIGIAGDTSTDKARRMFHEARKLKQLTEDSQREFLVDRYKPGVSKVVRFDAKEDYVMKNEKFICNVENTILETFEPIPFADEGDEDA

V5-KSR (from UniProt Q24171) Y925D
ratio to parent [1]: 0.25

m5; m6 KSR:R913E; MEK:E323R
ratio to parent (Flag-CNK^2–549; anti-Myc (MEK) blot): 0.41 | ratio to parent (Flag-CNK^2–549; anti-V5 (KSR) blot): 0.41

V5-KSR (from UniProt Q24171) M902D
ratio to parent [1]: 0.13

m6; m8 MEK:E323R; CNK:Q84E
ratio to parent ([2]; anti-Myc (MEK) blot): 0.02 | ratio to parent ([2]; anti-V5 (KSR) blot): 0.05

m6; m8 MEK:E323R; CNK:N96E
ratio to parent ([3]; anti-Myc (MEK) blot): 0.22 | ratio to parent ([3]; anti-V5 (KSR) blot): 0.27

V5-KSR (from UniProt Q24171) E926R
ratio to parent [1]: 1.12

m6; m8 MEK:E323R; CNK:Y76R
ratio to parent ([4]; anti-Myc (MEK) blot): 0.06 | ratio to parent ([4]; anti-V5 (KSR) blot): 0.09

m5; m8 KSR:R913E; CNK:Q84E
ratio to parent ([2]; anti-Myc (MEK) blot): 0.1 | ratio to parent ([2]; anti-V5 (KSR) blot): 0.13

V5-KSR (from UniProt Q24171) K903D
ratio to parent [1]: 0.26

V5-KSR (from UniProt Q24171) W896R
ratio to parent [1]: 0.29

m6; m8 MEK:E323R; CNK:R46F
ratio to parent ([5]; anti-Myc (MEK) blot): 0.2 | ratio to parent ([5]; anti-V5 (KSR) blot): 0.23

B1: m6; m5 MEK:E323R; KSR:R913E (protein)
chain: MSKNKLNLVLPPVNTEATVAAATVAPTPPFKTPSGTDTHSLLGKPKTSIDALTETLEGLDMGDTERKRIKMFLSQKEKIGELSDEDLEKLGELGSGNGGVVMKVRHTHTHLIMARKLIHLEVKPAIKKQILRELKVLHECNFPHIVGFYGAFYSDGEISICMEYMDGGSLDLILKRAGRIPESILGRITLAVLKGLSYLRDNHAIIHRDVKPSNILVNSSGEIKICDFGVSGQLIDSMANSFVGTRSYMSPERLQGTHYSVQSDIWSLGLSLVEMAIGMYPIPPPNTATLESIFADNAEESGQPTDEPRAMAIFELLDYIVNRPPPKLEHKIFSTEFKDFVDICLKKQPDERADLKTLLSHPWIRKAELEEVDISGWVCKTMDLPPSTPKRNTSPN
ratio to parent (V5-KSR R913E, Q24171): 1.01
